Test results reported in paper PMC7222171 (Cellular and Molecular Immunology, 2020).

Molecular target: Con1 E2 soluble fragment, amino acids 384–661 (wild type) (Hepatitis C virus genotype 1b, Con1, UniProt Q9WMX2)
Assay: ELISA

Chain of Con1 E2 soluble fragment, amino acids 384–661 (wild type) (Q9WMX2 384-661): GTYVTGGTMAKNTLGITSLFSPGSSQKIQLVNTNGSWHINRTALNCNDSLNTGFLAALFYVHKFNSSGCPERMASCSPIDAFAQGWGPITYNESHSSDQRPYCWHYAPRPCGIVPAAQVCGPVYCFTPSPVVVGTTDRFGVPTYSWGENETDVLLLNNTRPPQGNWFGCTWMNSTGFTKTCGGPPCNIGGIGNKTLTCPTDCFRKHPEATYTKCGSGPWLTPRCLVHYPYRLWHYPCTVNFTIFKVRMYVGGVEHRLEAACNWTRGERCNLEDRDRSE

B1: 8D6 double Cys to Ala mutant (C104A, C109A) (antibody, V domains shown)
VH: QVQLVQSGSELKKPGASLKLSCKASGYTYITPAMNWVRQAPGHGLEWMGGINTNTGNPTYAQGFAGRFVFSWDTSVSTAYLHISSLKTEDTAVYYCADTRIFSARRGTAYGGFDVWGQGTMVTVSS
VL: DIQMTQSPSSLSASVGDRITITCRASQSISNFLNWFQHRPGKAPKLLIYGATILQSGVPSRFSGSGSGTDFTLTISSLQPEDFATYYCQQSDSSTYIFGQGTKVEIK
binding result: binds

B2: AR3C double Cys mutant (double amino-acid substitution in the CX4C motif) (antibody, V domains shown)
VH: VQLLEQSGAEVKKPGSSVKVSCETSGGTFDNYALNWVRQAPGQGLEWIGGVVPLFGTTRNAQKFQGRVTISDDKSTGTGHMELRSLRSEDTAVYYCVRSVTPRYAGGGFAYGEFDYWGQGTLVTVSS
VL: EIELTQSPATLSVSPGERATLSCRASQSVSSNLAWYQQKPGQAPRLLIYGASTRATGIPARFSGSGSGTEFTLTVSRLEPEDSAVYFCQQYYRSPLTFGGGTKVEIK
binding result: binds
